Experimental data: US10684273B2, “Use of phosphatidylinositol phosphate-binding material for apoptosis detection” (GIL MEDICAL CENTER, priority 2015, dated 2020)
Entries after “also recorded” stand apart in the source; their conditions may differ.

Legend:
[1] = test system: PtdIns(3,4,5)P3 externalized on the surface of apoptotic HeLa and CHO cells; test: binding of recombinant Akt protein to apoptotic cells (confocal microscopy); format: cell-based; conditions: through PH domain; 2 μg protein
Protocol: First, HeLa and CHO cells were treated with 4 μM camptothecin for 6 hours to induce apoptosis, fixed with formalin (10% neutral buffered) for 5 minutes, and washed twice with PBS. Then, the cells were treated with the serum-free protein blocking solution (Dako), and cultured along with 2 μg of recombinant Akt proteins (Millipore) for 30 minutes. Then, the HeLa and CHO cells, which were bound to Akt proteins, were treated with rabbit anti-CD14 antibody (HPA00212; 1:200, Sigma-Aldrich USA) or the anti-Akt pleckstrin homology (PH) domain antibody of monoclonal mouse (05-591, 1:100, Millipore) for 30 minutes, and treated with FITC-labeled secondary antibody for 30 minutes. Then, the resultant was counterstained with DAPI to visualize nuclei, and counterstained with propidium iodide to distinguish apoptotic cells.
(§1) Then, the cells were placed on a microscope and photographed by the Zeiss LSM 710 laser-scanning confocal microscope (Carl Zeiss) with appropriate excitation using a release filter set. The images were photographed using 40× oil immersion lens. The fluorescence intensity of the unprocessed original images was quantified using ZEN 2010 software (Carl Zeiss).

liver Kupffer cells = test: phagocytosis of IC-InsP6 by liver Kupffer cells after intra-arterial injection; format: in vivo, C57BL/6 mice
[2] = test system: Thioglycollate-elicited peritoneal macrophages (Thio-pMacs); test: IC-InsP6 absorption by peritoneal macrophages (Prussian blue staining); format: cell-based, C57BL/6 mouse; conditions: compared to non-activated Thio-pMacs; 0 mM to 0.5 mM, 4 hours; concentration-dependent
Protocol: Thioglycollate-elicited peritoneal macrophages (Thio-pMacs) in a C57BL/6 mouse were obtained. Specifically, 2 mL of 3% Brewer thioglycollate medium (Difco, Detroit, Mich., USA) was intraperitoneally injected the mouse, and 3 to 5 days thereafter, the peritoneum of the mouse was washed with cold PBS to recover peritoneal macrophages. The cells were centrifuged at 1,500 rpm for 5 minutes. The resulting pellet was washed 3 times with PBS, resuspended in DMEM medium containing 10% FBS (Gibco), and cultured on the cover glass in a 6-well plate (Nunc, Fisher Scientific) at a density of 1×10^5 cells/mL. The cells were cultured by adhesion culture, and the slides were washed to remove the suspending cells. Then, the adhered Thio-pMacs cells were cultured according to the presence of LPS (0.5 μg/mL) for 6 hours. LPS induces the activation of Thio-pMacs.
After cultivation, the cells were treated with IC-InsP6 (0 mM to 0.5 mM) for 4 hours. The cells were washed with PBS to remove free IC-InsP6, fixed with formalin (10% neutral buffered) for 5 minutes, and stained as described below for the confirmation of intracellular iron absorption. Specifically, the cover glass was placed in a staining solution (5% potassium ferrocyanide and 12% HCl) for 1 hour, washed 3 times with distilled water, and stained with Prussian blue. […]

RAW264.7 macrophages = test: IC-InsP6 absorption by RAW264.7 macrophages; format: cell-based; conditions: treatment concentration-dependent
[3] = protein-lipid overlay assay and immunoblotting (PIP strips or PIP arrays); format: binding; conditions: mixed with 5 μM CaCl2
Protocol: (§2) To confirm whether the inositol phosphpate groups of various phosphatidylinositol phosphates directly bind to macrophage CD14 receptors, a protein-lipid overlay assay was performed using the full-length recombinant human CD14 proteins and variant CD14 proteins prepared in Example 2-2. PIP strips or PIP arrays were purchased from Echelon Biosciences.
(§3) After culturing a cell membrane for 15 minutes, non-specific bindings to the cell membrane was blocked using TBS-T (50 mM Tris, 0.15 M NaCl, and 0.05% Tween-20, pH 7.4, EDTA-free protease inhibitor cocktail; Roche, Germany) containing 3% BSA. After the blocking, the cell membrane was incubated along with each of the purified recombinant CD14 proteins (100 ρmol) for 30 minutes, washed 3 times with PBS, incubated again with anti-CD14 (rabbit, HPA002127; Sigma-Aldrich), and incubated with horseradish peroxidase (HRP)-labeled secondary antibody (goat; HAF007; R&D Systems) for 30 minutes. The binding was detected using the ImageQuant LAS 4000 (Fujifilm, Japan). As described in Toda et al. (Mol Cell Biol 32, 118, 2012), PIP-affinity bead pulldowns were performed.
To confirm whether the PKCβ1 C2 domain-Myc protein and the inositol phosphpate group in various phosphatidylinositol phosphates directly bind to each other, protein-lipid overlay assay and immunoblotting were performed in the same manner as in Example 2-3. The PIP strip or PIP array was purchased from Echelon Biosciences.
Annexin V, which is known to specifically bind to phosphatidylserine, was subjected to protein-lipid overlay assay and immunoblotting in the same manner as in Example 2-3.

apoptotic cells = test: flow cytometer analysis of apoptosis; format: cell-based; conditions: FIG. 14
Protocol: (§4) First, apoptosis was induced in CHO cells by treating them with 4 μM camptothecin for 6 hours, and the cells were fixed with formalin (10% neutral buffered) for 5 minutes and washed twice with PBS. Then, the cells were treated with a serum-free protein blocking solution (DAKO) along with the recombinant PH domain prepared in Example 5-1 for 30 minutes. Then, the cells were treated with the anti-Akt PH domain antibody of monoclonal mouse (05-591, 1:100, Millipore) and then treated with FITC-labeled secondary antibody for 30 minutes. Then, the cells were washed with PBS, fixed with formalin (10% neutral buffered) for 5 minutes, and stained. The cells were counterstained with propidium iodide to distinguish apoptotic cells.
(§5) The recombinant annexin V prepared in Example 5-1 was subjected to an experiment in the same manner and analyzed by FACS.

[4] = protein-lipid overlay assay, other lipids on the strip; format: binding; conditions: mixed with 5 μM CaCl2
Protocol: as §2, §3
To confirm whether the PKCβ1 C2 domain-Myc protein and the inositol phosphpate group in various phosphatidylinositol phosphates directly bind to each other, protein-lipid overlay assay and immunoblotting were performed in the same manner as in Example 2-3. […]

apoptotic CHO cells = test: detection of apoptosis by recombinant PH domain and annexin V (confocal microscopy); format: cell-based; conditions: 4 μM camptothecin 6 hours
Protocol: as §4, §5, §1

## recombinant Akt protein: recombinant Akt proteins (Millipore), PH domain-containing protein
[1]
  binding to PtdIns(3,4,5)P3 externalized on the surface of apoptotic cells: binds; also recorded: can bind

## Iron-Calcium-InsP6 (phytate) [IC-InsP6]
Liver Kupffer cells; CD14-defective mice, intra-arterial injection
  phagocytosis of IC-InsP6 by CD14-defective Kupffer cells: hardly phagocytized
Liver Kupffer cells; wild-type mice
  phagocytosis of IC-InsP6 by wild-type Kupffer cells: effectively phagocytized
[2]
  phagocytosis of IC-InsP6 by LPS-activated Thio-pMacs: effective phagocytosis
RAW264.7 macrophages
  phagocytosis of IC-InsP6 by RAW264.7 macrophages: effective phagocytosis

B1: annexin V: human annexin V (1st to 319th amino acids) cloned into pET28a, expressed in E. coli, 37 kDa (protein, UniProt P08758 1-319, looked up, fragment)
chain: MAQVLRGTVTDFPGFDERADAETLRKAMKGLGTDEESILTLLTSRSNAQRQEISAAFKTLFGRDLLDDLKSELTGKFEKLIVALMKPSRLYDAYELKHALKGAGTNEKVLTEIIASRTPEELRAIKQVYEEEYGSSLEDDVVGDTSGYYQRMLVVLLQANRDPDAGIDEAQVEQDAQALFQAGELKWGTDEEKFITIFGTRSVSHLRKVFDKYMTISGFQIEETIDRETSGNLEQLLLAVVKSIRSIPAYLAETLYYAMKGAGTDDHTLIRVMVSRSEIDLFNIRKEFRKNFATSLYSMIKGDTSGDYKKALLLLCGED
[3]
  binding to PI(3,5)P2, PI(4,5)P2, and PI(3,4,5)P3: strongest bindings
  binding to PI(5)P, PI(3)P, PI(4)P and PI(3,4)P2: also shown to bind
[3]; 100 ρmol
  binding to various kinds of phosphatidylinositol phosphates: shown to bind
Apoptotic cells
  detection in apoptotic cells by flow cytometer: simultaneously detected
[4]
  binding to phosphatidylserine: did not bind
Apoptotic CHO cells; FIG. 13
  binding on the surfaces of apoptotic cells / detection of apoptosis: bind at different locations from each other

B2: PH domain: human Akt PH domain (1st to 144th amino acids) cloned into pET28a, expressed in E. coli, 21 kDa (protein, UniProt P31749 1-144, looked up, fragment)
chain: MSDVAIVKEGWLHKRGEYIKTWRPRYFLLKNDGTFIGYKERPQDVDQREAPLNNFSVAQCQLMKTERPRPNTFIIRCLQWTTVIERTFHVETPEEREEWTTAIQTVADGLKKQEEEEMDFRSGSPSDNSGAEEMEVSLAKPKHR
modifications: PH domain
notes: human Akt PH domain (1st to 144th amino acids) cloned into pET28a, expressed in E. coli, 21 kDa
Apoptotic cells
  detection in apoptotic cells by flow cytometer: appeared
Apoptotic CHO cells; FIG. 13
  binding on the surfaces of apoptotic cells / detection of apoptosis: bind at different locations from each other
Apoptotic CHO cells; FIG. 13, listed as recombinant PH domain
  binding on the surfaces of apoptotic cells / detection of apoptosis: can detect apoptosis
